Results taken from paper PMC11809415 (2025).

B1: F-tractinopt–mCherry fusion [rat] / F-actin (rabbit skeletal muscle α-actin filaments) [rabbit] (parent complex)
chain 1: APRRSVGELRLLFEARAASAA
chain 2: not shown

Variants of: B1
Test: high-speed cosedimentation assay (SDS-PAGE densitometry); 2 µM F-tractin-mCherry; high-speed sedimentation, 120,000 g; point at the highest actin level (40 µM total, about 40 µM free F-actin); read off a plot
chain 1 F13A was tested, and the response was ~0.06 fraction of F-tractin bound.

Variants of: B1
Test: high-speed cosedimentation assay (SDS-PAGE densitometry); 2 µM F-tractin-mCherry; high-speed sedimentation, 120,000 g; actin 0-40 µM
With chain 1 R3A the Kd was 23 µM.

Variants of: B1
Test: high-speed cosedimentation assay (SDS-PAGE densitometry); 2 µM F-tractin-mCherry; high-speed sedimentation, 120,000 g; point at the highest actin level (40 µM total, about 39 µM free F-actin); read off a plot
With chain 1 R3A the response was ~0.44 fraction of F-tractin bound.
